Assay results reported in the supplement of paper PMC7125110.
± gives the standard error. This sample holds only a part of the variants without activity.

B1: glmS ribozyme (parent)
chain: AUAAAAGCGCCAGAACUACAGAAAUGUAGUUGACGAGGAGGAGGUUUAUCGAAUUUUCGGCGGAUGCCUCCAAA

Legend:
Conditions in all cases: with glucosamine-6-phosphate
glucosamine-6-phosphate [1] = variants of: B1; assay: self-cleavage kobs at 40 uM GlcN6P; higher = faster cleavage; RNA array
Summary of the method: (§1)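 Barcoded ribozyme variants on sequenced MiSeq chips were transcribed in situ by E. coli RNA polymerase and followed at 37 °C through a hybridised Cy3 probe. Glucosamine-6-phosphate at 40 μM to 10 mM in HEPES/KCl/Mg(OAc)2 buffer was flowed in, and tiles were imaged over ~14 h. Signals were normalised to baseline and to non-cleaving reference variants, and per-tile medians were fit to one- or two-exponential decays to give kobs. Weighted Michaelis–Menten fits across concentrations gave kcat and KM.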

glucosamine-6-phosphate [2] = variants of: B1; assay: self-cleavage kobs at 160 uM GlcN6P; higher = faster cleavage; RNA array
Summary of the method: as §1

glucosamine-6-phosphate [3] = variants of: B1; assay: self-cleavage kobs at 640 uM GlcN6P; higher = faster cleavage; RNA array
Summary of the method: as §1

glucosamine-6-phosphate [4] = variants of: B1; assay: self-cleavage kobs at 2500 uM GlcN6P; higher = faster cleavage; RNA array
Summary of the method: as §1

glucosamine-6-phosphate [5] = variants of: B1; assay: self-cleavage kobs at 10000 uM GlcN6P; higher = faster cleavage; RNA array
Summary of the method: as §1

Variant | self-cleavage kobs at 40 uM GlcN6P (glucosamine-6-phosphate [1]) [s⁻¹] | self-cleavage kobs at 160 uM GlcN6P (glucosamine-6-phosphate [2]) [s⁻¹] | self-cleavage kobs at 640 uM GlcN6P (glucosamine-6-phosphate [3]) [s⁻¹] | self-cleavage kobs at 2500 uM GlcN6P (glucosamine-6-phosphate [4]) [s⁻¹] | self-cleavage kobs at 10000 uM GlcN6P (glucosamine-6-phosphate [5]) [s⁻¹]
G7U A42G | < 1e-05 | < 1e-05 | < 1e-05 | < 1e-05 | < 1e-05
G7U G9U | < 1e-05 | < 1e-05 | < 1e-05 | < 1e-05 | < 1e-05
G7A G51U | < 1e-05 | < 1e-05 | < 1e-05 | < 1e-05 | –
G7U A52U | < 1e-05 | – | < 1e-05 | < 1e-05 | < 1e-05
G7C G41U | < 1e-05 | < 1e-05 | – | < 1e-05 | < 1e-05
G7U C8A A33U G43A U55A | < 1e-05 | – | < 1e-05 | < 1e-05 | < 1e-05
G7A U30G G41C C58G G66A | < 1e-05 | – | – | – | –
G7A G9U C16A G37U U65C | < 1e-05 | – | – | – | –
G7C A15G A36U | < 1e-05 | – | < 1e-05 | – | < 1e-05
G7A U55C | < 1e-05 | < 1e-05 | < 1e-05 | – | –
G7C C70A | < 1e-05 | < 1e-05 | < 1e-05 | < 1e-05 | < 1e-05
G7C U56G | < 1e-05 | < 1e-05 | < 1e-05 | < 1e-05 | < 1e-05
G7C U47G U56G G59U G60C | < 1e-05 | – | – | – | –
G7A G32C | < 1e-05 | < 1e-05 | < 1e-05 | < 1e-05 | < 1e-05
G7U C58A C67G C70U | 9.59e-05 ± 3.4e-05 | – | – | – | –
A6U U46G C58A | < 1e-05 | – | – | – | –
G7C G40A | < 1e-05 | < 1e-05 | < 1e-05 | < 1e-05 | < 1e-05
G7A A33C U57C G63A | < 1e-05 | – | – | – | –
G7A G66U | < 1e-05 | < 1e-05 | – | < 1e-05 | < 1e-05
G7C C11U C61A C70G | < 1e-05 | – | – | < 1e-05 | –
G7C U47C | < 1e-05 | < 1e-05 | < 1e-05 | – | < 1e-05
G7C | < 1e-05 | < 1e-05 | < 1e-05 | < 1e-05 | < 1e-05
A6U U31C C50G | 7.08e-05 ± 1.6e-05 | – | – | – | 3.4e-05 ± 1.4e-05

Variant | self-cleavage kobs at 40 uM GlcN6P (glucosamine-6-phosphate [1]) [s⁻¹] | self-cleavage kobs at 160 uM GlcN6P (glucosamine-6-phosphate [2]) [s⁻¹] | self-cleavage kobs at 640 uM GlcN6P (glucosamine-6-phosphate [3]) [s⁻¹] | self-cleavage kobs at 2500 uM GlcN6P (glucosamine-6-phosphate [4]) [s⁻¹] | self-cleavage kobs at 10000 uM GlcN6P (glucosamine-6-phosphate [5]) [s⁻¹]
G7A U46G | < 1e-05 | < 1e-05 | < 1e-05 | – | –
G7A G13U | < 1e-05 | < 1e-05 | < 1e-05 | – | –
G7A G13A | < 1e-05 | < 1e-05 | < 1e-05 | – | < 1e-05
G7C U54A | < 1e-05 | – | < 1e-05 | – | < 1e-05
G7C A15G | < 1e-05 | – | – | – | < 1e-05
G7C U31A | < 1e-05 | – | < 1e-05 | < 1e-05 | < 1e-05
G7A G32A C58A | < 1e-05 | – | – | – | < 1e-05
G7C U31G G43A U55G C68U | < 1e-05 | – | – | – | –
G7A A12U | < 1e-05 | < 1e-05 | – | 2.22e-05 ± 8.3e-06 | 7.91e-05 ± 2e-05
G7C U30G G35U G37U U57C C71G | < 1e-05 | – | – | – | < 1e-05
G7U C50G | 0.000281 ± 8.4e-05 | 0.000551 ± 0.00024 | – | 0.0008 ± 0.00024 | –
G7U A48U G60C | < 1e-05 | – | – | – | –
A6U U55C C71A | < 1e-05 | – | – | – | –
G7U C10A A15U | < 1e-05 | – | < 1e-05 | < 1e-05 | –
G7C G29C G35U | < 1e-05 | – | < 1e-05 | – | < 1e-05
G7U A36C G59U | < 1e-05 | – | – | – | < 1e-05
G7A A52U G63C | < 1e-05 | < 1e-05 | < 1e-05 | < 1e-05 | –
G7A G35C G59A C67G | < 1e-05 | < 1e-05 | < 1e-05 | < 1e-05 | –
G7A U56A | < 1e-05 | < 1e-05 | < 1e-05 | – | –
G7A G32A G51A G62C C68A | < 1e-05 | < 1e-05 | – | – | –
G7C G63C C68G U69A | < 1e-05 | – | – | – | < 1e-05
G7C G44C A64U | < 1e-05 | – | – | – | < 1e-05
G7C C11U G29A G40A A42U G62U | < 1e-05 | – | – | – | –

Variant | self-cleavage kobs at 40 uM GlcN6P (glucosamine-6-phosphate [1]) [s⁻¹] | self-cleavage kobs at 160 uM GlcN6P (glucosamine-6-phosphate [2]) [s⁻¹] | self-cleavage kobs at 640 uM GlcN6P (glucosamine-6-phosphate [3]) [s⁻¹] | self-cleavage kobs at 2500 uM GlcN6P (glucosamine-6-phosphate [4]) [s⁻¹] | self-cleavage kobs at 10000 uM GlcN6P (glucosamine-6-phosphate [5]) [s⁻¹]
G7A G41A | < 1e-05 | < 1e-05 | < 1e-05 | < 1e-05 | < 1e-05
G7U A12U A52G U55G | < 1e-05 | – | – | – | < 1e-05
G7C A33G A53U A64G | < 1e-05 | – | < 1e-05 | – | –
G7A A53C | < 1e-05 | < 1e-05 | < 1e-05 | < 1e-05 | –
G7A G41A U45C U49A | < 1e-05 | – | – | – | –
G7U A33G U55A | < 1e-05 | – | – | – | < 1e-05
G7U A33U A64G C70G | < 1e-05 | – | – | – | –
G7C U49A | < 1e-05 | < 1e-05 | – | < 1e-05 | < 1e-05
G7U G9A A14U C50G | 0.000146 ± 5.4e-05 | 0.000138 ± 3.6e-05 | 0.000267 ± 5.8e-05 | 0.000647 ± 0.00016 | 0.000226 ± 5.3e-05
G7A A52G | < 1e-05 | – | < 1e-05 | – | < 1e-05
G7U A12G | < 1e-05 | < 1e-05 | < 1e-05 | – | < 1e-05
G7A G29C | < 1e-05 | – | – | < 1e-05 | –
G7U C8G U47G C58U C61G U69G | 0.000436 ± 0.00012 | – | – | – | 0.000464 ± 0.00012
G7C A48U C70G | < 1e-05 | – | – | – | < 1e-05
G7C U31C G43C C50U | < 1e-05 | < 1e-05 | < 1e-05 | – | < 1e-05
G7U C19A | < 1e-05 | < 1e-05 | < 1e-05 | < 1e-05 | –
G7U C70G C71G | 4.02e-05 ± 2e-05 | – | 0.000251 ± 8.1e-05 | – | –
G7C A48U | < 1e-05 | < 1e-05 | – | < 1e-05 | < 1e-05
G7C G32U C34A G35C | < 1e-05 | – | – | – | –
G7C U65G | < 1e-05 | – | < 1e-05 | < 1e-05 | < 1e-05
G7U A48U | < 1e-05 | < 1e-05 | < 1e-05 | < 1e-05 | < 1e-05
G7A A48C | < 1e-05 | < 1e-05 | < 1e-05 | – | < 1e-05
G7U A36U G40C | < 1e-05 | – | – | < 1e-05 | < 1e-05

Variant | self-cleavage kobs at 40 uM GlcN6P (glucosamine-6-phosphate [1]) [s⁻¹] | self-cleavage kobs at 160 uM GlcN6P (glucosamine-6-phosphate [2]) [s⁻¹] | self-cleavage kobs at 640 uM GlcN6P (glucosamine-6-phosphate [3]) [s⁻¹] | self-cleavage kobs at 2500 uM GlcN6P (glucosamine-6-phosphate [4]) [s⁻¹] | self-cleavage kobs at 10000 uM GlcN6P (glucosamine-6-phosphate [5]) [s⁻¹]
G7U A52G C68G | 0.000127 ± 4.6e-05 | – | – | – | 0.000484 ± 0.00022
G7A A48U U49G | < 1e-05 | – | – | – | < 1e-05
G7U A39C | < 1e-05 | < 1e-05 | < 1e-05 | – | < 1e-05
G7U A39G | < 1e-05 | < 1e-05 | < 1e-05 | < 1e-05 | < 1e-05
G7C G66U | < 1e-05 | < 1e-05 | < 1e-05 | < 1e-05 | –
G7A G13U A14C A15U G35A U55C A64G C71A | < 1e-05 | – | – | – | < 1e-05
G7C A52U | < 1e-05 | < 1e-05 | < 1e-05 | < 1e-05 | < 1e-05
G7U G9A U57G C67A | < 1e-05 | – | – | – | –
G7U C50G C68G | 0.000115 ± 2e-05 | 0.000493 ± 0.00019 | – | 0.000185 ± 6.6e-05 | 0.000186 ± 3.4e-05
G7A G13U U69G C71A | 0.00031 ± 7.3e-05 | – | – | – | 0.000516 ± 0.00016
G7C C50U | < 1e-05 | < 1e-05 | < 1e-05 | < 1e-05 | –
G7C U55A | < 1e-05 | < 1e-05 | < 1e-05 | < 1e-05 | –
G7C U55G | < 1e-05 | – | – | – | < 1e-05
G7A G37C A42U | < 1e-05 | – | < 1e-05 | < 1e-05 | < 1e-05
G7A C67U | < 1e-05 | < 1e-05 | < 1e-05 | – | –
G7A G32A U45A A52G U65G | < 1e-05 | – | – | – | –
G7U C34U | < 1e-05 | – | – | < 1e-05 | –
G7U C16U G29C U54A | < 1e-05 | – | – | < 1e-05 | –
G7A C50G | 4.24e-05 ± 1.5e-05 | 6.67e-05 ± 2e-05 | – | – | –
G7U A42U G44C | < 1e-05 | – | – | – | < 1e-05
G7C G51A | < 1e-05 | < 1e-05 | < 1e-05 | – | < 1e-05
G7A C8G G9C C10G A12C G13A A14G C16A U17C U31A | 0.000115 ± 4.2e-05 | – | – | – | 0.00555 ± 0.0017
